From the nanobody polyreactivity screen of Harvey et al. (2022)

Experiment: yeast display, Sf9 membrane polyspecificity reagent, FACS + sequencing; frameworks hold sequencing errors
Procedure, shortened: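 Genes from sorted yeast were amplified by colony PCR, read by MiSeq 2 × 250 sequencing and filtered on CDR length. These cells carried a synthetic nanobody library in Saccharomyces cerevisiae BJ5465 and were sorted by FACS into low and high (top ~1%) gates on anti-HA and streptavidin fluorescence. Polyreactivity is labelled according to the gate of origin.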

Row | Sequence | polyreactivity (PSR sort gate)
1 | QVQLVESGGGLVQAGGSLRLSCSASGSIFAWYGRGWYRQSPGKESELVAAITSTGSTYYADSVKGRFTISRDNAKNTVYLQMTSLKPEDTAVYYCNAYYVYLWRPGVYWGQGTQVTVSS | low polyreactivity
2 | QVQLVESGGGLVQAGGSLRLSCAASGSIFYRNGMGWYRQAPGKERELVAAISGRGGSTNYADSVKGRFTISRDNAKNTVYLQMNSLKPEDTAVYYCNRYGVSNILVRGGYWGQGTQVTVSS | high polyreactivity
3 | QVQLVESGGGLVQAGGSLRLSCAASGSTFIFYSMGCYRQAPGKERELVASITSSSGPTYYADSVKGRFTISRDNAKNTVYLQMNSLKPEDTAVYYCAKRPIRYYHLLRGNYWGQGTQVTVSS | low polyreactivity
4 | QVQLVESGGGLVQAGGSLRLSCAASGFTFFHNAMGWYRPAPGKERELVAAITSGGNTYYADSVKGRFTISRDNAKNTVYLQMNSLKPEDTAVYYCAASFWSSGQWYDYWGQGTQVTVSS | high polyreactivity
5 | QVQLVESGGGLVQAGGSLRLSCAASGSTLIDYTMGWYRQAPGKERELVAAISSGGSTNYADSVKGRFTISRDNAKNTVYLQMNSLKPEDTAVYYCAKDHQRYFYGFWEHPRYDYWGQGTQVTVSS | high polyreactivity
6 | QVQLVESGGGLVQAGGSLRLSCAASGRTFGAYAMGCYRQAPGKERELVAAISIGGRTYYADSVKGRFTISRDKAKNTVYLQMNILKPEDTAVYYCNKVRSPWYDSWGQGTQVTVSS | high polyreactivity
7 | QVQLVESGGGLVQAGGSLRLSCAASGRTFFPYGMGWYRQAPGKERELVASISYSGGITYYADSVKGRFTISRDNAKNTVYLQMNSLKPEDTAVYYCSVRTIWRFRYDYWGQGTQVTVSS | high polyreactivity
8 | QVQLVESGGGLVQAGGSLRLSCAASGRTFNWYAMGWYRQAPGKERELVAAIRVNGGITYYADSVKGRFTISRDNAKNTVYLQMISLKPEDTAVYYCAVYSRQGLGYWGQGTQVTVSS | high polyreactivity
9 | QVQLVESGGGLVQAGGSLRLSCAASGYIFNRYVMGWYRQAPGKERELVAAITWRGGTTYADSVKGRFTISRDNAKNTVYLLMNSLKPEDTAVYYCAARRYPFEYDYWGQGTQVTVSS | high polyreactivity
10 | QVQLVESGGGLVQAGGSLRLSCAASGRIFTFYAMGWYRQAPGKARELVASITGGGNTYYADSVKGRFTISRDNAKNTVYLQMNSLKPEDTAVYYCAAGFSYFTSVLSLDRYYYWGQGTQVTVSS | low polyreactivity
11 | QVQRVESGGGLVQAGGSLRLSCAASGITIYHYAMGCYRQAPGKERELVAAISRSGGSTSYADSVKGRFTISRDNAKNTVYLQMNSLKPEDTAVYYFAARLVRESDPLGYWGQGTQVTVSS | high polyreactivity
12 | QVQLVESGGGLVQAGGSLRLSCAASGRTFRKYAMGWYRQAPGTERELVAAISWSGGSTYYANSVKGRFTISRDNAKNTVYLQMNSLKPEDTAVYYGAAVPVHNGSLYWGFTTGYDYWGQGTQVTVSS | low polyreactivity
13 | QVQLVESGGGLVQAGGSLRLICAASGRIFYRYAMGWYRQAPGKERELVAAITWRGGSTYYADSVKGRFTISRDNAKNTVYLQMNSLKPEDTAVYYCAAAAYGVPWRSYLGVFKSHMDYWGQGTQVTVSS | high polyreactivity
14 | QVQLVESGGGLVQAGGSLRLSCAASGITFIGYPMGWYRQAPGKERELVASITSGANTNYADSVKGRFTISRDNAKNTVYLQMNSLKPEDTAVYYCAAPEHGTYANILGEPLDYWGQGTQVTVSS | low polyreactivity
15 | QVQLVESGGGLVQAGGSLRLSCEASGRIFDDNDMGWYRQAPGKERELVAAISSGDSTKYADSVKGRFTITRDNAKNTVYLQMNSLKPEDTAVYYCAAERNHGLVGSESVGRNDYWGQGTQVTVSS | low polyreactivity
16 | QVQIVESGGGLVQAGGSLRLICAASGSTFGLNAMGWYRQAPGKERELVAAITRSDITNYADSVKGRFTISRDNAKNTVYLKLNSLKPEDTAVYYCNKTPDRHRRYFGYGYWGQGTLVTVSS | low polyreactivity
17 | QVQLVESGGGLVQAGGSLRLSCAASGFILGYNAMGWYRQAPGKERELVADITFSGGGTNYADSVKGRFTISRDNAKNTVYLQMNSLKPEDTAVYYCNAAAFSQLRVRYDYWGQGTQVTVSS | low polyreactivity
18 | QVQLVESGGGLVQAGGSLRLSCAASGSTFEEYAMGWYRKAPGKERELVAGITWGGGSTYYADSVKGRFTISRDNAKNTVYLQMNSLKPEDTAVYYCVFAFEYYYWGQGTQVTVSS | low polyreactivity
19 | QVQLVESGGGLVQAGGSLRLSCAASGNTFTWYTMGWYRQAPGKERELVAVMTSDGSTYYADSVKGRFTISRDNAKNTVSFQMNSLKPEDTAVYYCNRGVFDTFYYYPQVGFGYWGQGTQVTVSS | low polyreactivity
20 | QVQLVESGGGLVQAGGSLRLSCAASGIIFVEYAMGWYRQAPGKERELVARIRYSGGSTYYADSVKGRFTISRDNAKNTVYLQMNSLKPEDTAVYYCNALFPYIYDYWGQGTQVTVSS | low polyreactivity
21 | QVQLVESGGGLVQAGGSLRLSCAASGRIFVLYAMGWYRQAPGKERELVAAINWSGGSTFYADSVKGRFTISRDNAKNTVYLQMNSLKPEDTAVYYCAADPYFWSALRIGQNDYWGQGTQVTVSS | high polyreactivity
22 | QVQRVESGGGLVQAGGSLRLSCAASGRTFYPNAMGWSRQAPGKERELVADITYSGASTYYADSVKGRFTISRDNAKNTVYLQMNSMKPEDTAVYYCAKVYGQMVSGGYVTRYDFWGQGTQVTVSS | low polyreactivity

Row | Sequence | polyreactivity (PSR sort gate)
23 | QVQLVESGGGLVQAGGSLRLSCAASGRTFGNNAMGWYRQAPGKERELVAAITARGSRTYYADSVKGRFTISRDNAKNTVYLQMNSLKPEDTAVYYCNAGVRRYYRSLHSIGIYYYWGQGTQVTVSS | high polyreactivity
24 | QVQLVESGGGLVQAGGSLRLSCAASGNTFRWNAMGWYRQAPGKERELVAGISIDDGSNYADSVKGRFTISRDNAKKTVYLQMNSLTPEDTAVYDCNRDWALYVFGRHYHAYYSWGQGTHVTVSS | low polyreactivity
25 | QVQLVESGGGLVQAGGSLRLSCAASGSIFSYYAMGWYRQAPGKERELVAAITRGGTTYYADSVKGRFTISRDNAKNTVYLQRNSLKPEDTAVYYCAASDYYGEYEYWGQGTQVTVSS | high polyreactivity
26 | QVQLVESGGGLVQAGGSLRLRCAASGRIFDANAMGWYRQAPGKERELVAAITSRGGTTFYADSVKGRFTISRDNEKNTDYLQMNSLKPEDTAVYYCAADRYYFYRRYDYWGQGTQVTVSS | high polyreactivity
27 | QVQLVESGGGLVQAGGSLRLSCAASGRIFNRNAMGWYRQAPGKERELVASISSGGRTNYADSVKGRFTISRDNAKNTVYLLMNSLKPEDTAVYYCAAKSPRILLDYWGQGTQVTVSS | low polyreactivity
28 | QVQLVESGGGLVQAGGTLRLICAASAFIFDGYTMGWYRQAPGTERELVAAISRSGGRTYYADSVKGRFTISRDNAKNTVYLQMNSQKPEDTAVYDCAVRYRQYSQNLASDYGYWGQGTQVTVSS | high polyreactivity
29 | QVQLVESGGGLVQAGGSLRLSCAASGRIFAQYAMGWYRQAPGKERELVAAISSGGNTYYADSVKGRFTISRDNAKNTVYLQMNSLKPEDTAVYYCAASSRRYLWGFDYWGQGTQVTVSS | low polyreactivity
30 | QVQLVESGGGLVQAGGSLRLSCAASGNIFSSNDMGWYRQAPGKQRELVAANTRSGGSTYYADSVKGRFTISRDNAKNTLYIQMNSHTPEDTAVYDGAGRPYPRNSWGYDDWGQGTQVTVSS | high polyreactivity
31 | QVQLVESGGGLVQAGGSLRLSSAASGSIIQSNAIGGYRQAPGTERELVAAISYRGSRTYYADSVKGRFTISRDNAKNTVYIQMNSLKPDDTAVYYCAAVYRTYGIGPNNYWGQGTQVTVSS | high polyreactivity
32 | QVQLVESGGGLVQAGGSLRLSCAASGSTFASYAMGWYRQAPGKERELVAAIRWRGGTTYYADSVKGRFTISRDNAKNTVYLQMNSLKPDDTAVYYCNADRYYLYYYWGQGTQVTVSS | low polyreactivity
33 | QVQLVESGGGLVQAGGSLRLSCAASGFIIGDYAMGWYRQAPGKERELVAAITISGGGTYYADSVKGRFTISRDNAKNTVYLQMNSLKPEDTAVYYCAAGYYDLNLDTDFGFDYWGQGTQVTVSS | low polyreactivity
34 | QVQHVESGGGLVQAGGSLRLSCAATGRIFKYYARGWYTQAPGKERELVAAISSTGGRTYYADSVKGRFTNSRDNAKNTVYLQMNSLKPEDTAVFSCAADYAWGDPGRARFGYWGQGTQVTVSS | high polyreactivity
35 | QVQLVESGGGLVQAGGSLRLSCAACGRTFYNYAMGWYRQAPGKERELVAAITRGGSTYYADSVKGRFTISRDNAKNTVYLQMNSLKPEDTAVYYCNAVFPYEHEEYDYWGQGTQVTVSS | high polyreactivity
36 | QVQLVETGGGLVQAGGSLRLSCAASGFILDYNAKGWYRQAPGKERELVAAITSGGSTNYSDSVKGRFTISRDNAKNTVYLQMNSLKPEDTAVYYCNVRSVSPVHDDGSWGQGTQVTVSS | low polyreactivity
37 | QVQLVESGGGLVQAGGSLRLSCAASGRTFWSYAMGWYRQAPGKERELVAAITSSGGTTNYADSVKGRFTISRDNAKNTVYLQMNSLKPEDTAVYYCAAYSWYFGSRYDYWGQGTQVTVSS | low polyreactivity
38 | QVQLVESGGGLVQAGGSLRLSCAASGRTFGYNAMGWYRQAPGKERELVAVITSSGGRTYADSVKGRFTISRDNAKNTVYLQMNSLKPEDTAVYYCATRTRLAQYSRGRYRYDYWGQGTQVTVSS | high polyreactivity
39 | QVQLVESGGGLVQAGGSLRLSCAASGRIFASYVMGWYSQAPGKERELVAAISRSGVSTYYADSVKGRFTISRDNEKNTVYLQINSLIPEDTAVYYCATTRFPRSFQEFGYWGQGTQVNVSS | high polyreactivity
40 | QVQLVESGGGLVQAGGSLRLSCAASGRGYYAMGWYRQAPGKERELVAAISRGGNTKYADSVKGRFTISRDNAKNTVYLQMNSLKPEDTAVYYCYTDWADYYYYTDYDYWGQGTQVTVSS | high polyreactivity
41 | QVQLVESGGGLVQAGGSLRLSCAASGNTFDYYAMGWYRQAPGKERELVAAIDSGTTTYYADSVKGRFTISRDNAKNTVYLQMNSLKPEDTAVYYCAAEYAYVPGWYEYWGQGTQVTVSS | high polyreactivity
42 | QVQLVESGGGLVQAGGSLRLSCAASGRTFRYYTMGSYRPAPGKEREFVAAISSTGGTYYADSVKGRFTISRDNAKNTVYLQMNSLKPEDTAVYYCAKVYFWGALSPDKYDEDYWGQGTQVTVSS | low polyreactivity
43 | QVQLVESGGGLVQAGGSLRLSCAASGYTFDRYAMGWYRQAPGKERELVAVISRSGATTYYADSVKGRFTISRDNAKNTVYLQMNSLKPEDTAVYYCAARNPSGKGRYDYWGQGTQVTVSS | high polyreactivity
